Here are results for eight molecules from patent US10889844B2, “Methods of degrading or hydrolyzing a polysaccharide” (Novozymes A/S, priority 2010, dated 2021).

Assay [1] has as its target T1, CBP21 (Serratia marcescens, UniProt P9WEM3). Nature of the assay: Reactions under metal chelating conditions: re-activation of metal-free CBP21. The format is biochemical. The method, then: Solid lines indicate reactions with metal-free CBP21; dashed lines indicate reactions without CBP21. Half way through the reaction (indicated by the arrow) MgCl2 (final concentration 25 mM), ZnCl2 (25 mM) or buffer was added to one of two (parallel) reaction mixtures. Squares, MgCl2 added; circles, ZnCl2 added; triangles, buffer added.
Divalent cations were removed by chelation through dialysis of a 10 mg/mL CBP21 solution in a buffer containing 20 mM Tris-HCl and 5 mM EDTA. The protein solution was present in a Slide-A-Lyzer cassette (Pierce) with 10 kDa MW cut-off dialysis membrane. […] For the re-activation experiment, the divalent cations were added to the appropriate reaction solutions immediately after the third sampling (90 minutes).

Another assay concerns Cellic™ CTec2. Description: Effect of ascorbic acid on glucose release from cellulose by Cellic CTec2 (FIG. 35). The format is biochemical. The note with it: 0.5 mM ascorbic acid, 24 hours.
The nature of assay [2]: Filter paper cellulose degradation by […] with E7 (FIG. 28). It counts as biochemical. The note with it: 2 mM reduced glutathione. The method, then: 1 μM of the N-terminal CBM33 domain of CelS2 was incubated with 10 mg/ml AVICEL® in the presence of 0.8 mM of one of the reductants, or in the absence of any reductant. Reactions were run in 50 mM succinate buffer pH 5.5, 1 mM MgCl2, at 50° C. and 900 rpm (vertical agitation) for 20 hours. […] (glucose and cellobiose reported as [Glc]) released after incubation of 0.08 μl/ml […]™ (CC) in the presence or absence of 1 μM E7 and 2 mM reduced glutathione (RG) as external electron donor with 2 mg/ml filter paper cellulose. Reactions were incubated in 20 mM sodium acetate buffer pH 5.5, 1 mM MgCl2, at 50° C. and 900 rpm (horizontal agitation) for up to 50 hours.

Assay [3] in a line: Time course of filter paper cellulose degradation by […] with CelS2 (FIG. 25). The format is biochemical. The method, then: In reactions where no CelS2 was present, 40 μg/ml purified BSA was added in order to maintain an identical protein load. […] Data are mean+/−SD (N=3); error bars indicate SD.
The nature of assay [4]: Filter paper degradation by HjCel7A with CelS2 over time (FIG. 26). It counts as biochemical. The note with it: no CelS2 present. The method, then: By far the major products of these reactions are cellooligosaccharides released by the cellulases (whose activity is boosted by CelS2). In the case of HjCel7A, the main product is cellobiose and formation of this product is shown. RG, indicates the presence of a reductant, in this case reduced glutathione. […] The reactions were run at 50° C.

Assay [5] addresses T1, CBP21. It counts as biochemical.
In assay [6] the test system is CBP21 (Serratia marcescens). It counts as biochemical. As to conditions: CBP21 alone on beta-chitin with reductant; 10 mM sodium dithionite anaerobic or 2.0 mM potassium cyanide.
Assay [7] is described as follows: Cleavage of AVICEL by GH61 proteins in the presence of ascorbic acid (HPAEC, FIG. 34). The format is biochemical. As to conditions: 140 μg/ml GH61 protein, 10 mg/ml AVICEL, 2.4 mM ascorbic acid, pH 6.6, 24 hours. The source says: The two proteins were cloned and produced as described in Harris et al., 2010, supra. […] While the product pattern is similar to that obtained with CBM33s, it is not identical. The patterns typically obtained with CBM33s acting on cellulose in the presence of reductants (FIGS. 19, 22, 27, 30, and 31) show different peridiodicities (i.e., relative abundances of the various products, both oxidized and native oligosaccharides). This may indicate that TtGH61E acts on the substrate in a slightly different way, e.g., by attacking another face of the crystal. Clearly, however, the overall outcome of the reaction of TtGH61E in the presence of the reductant is similar to the outcome of reactions of CBM33s on cellulose in the presence of reductant.

A short description of assay [8]: Chitin solubilization by CBP21: soluble oxidized products (MALDI-TOF MS, UHPLC). The note with it: 2.0 mg/mL beta-chitin, 1.0 mM ascorbic acid, 20 mM Tris pH 8.0, 37° C. The format is biochemical.
Procedure: Two microliter of a 9 mg/mL mixture of 2,5-dihydroxybenzoic acid (DHB) in 30% acetonitrile was applied to a MTP 384 target plate ground steel TF (Bruker Daltonics). One microliter sample was then mixed into the DHB droplet and dried under a stream of air. The samples were analyzed with an Ultraflex MALDI-TOF/TOF instrument (Bruker Daltonics GmbH, Bremen, Germany) with a Nitrogen 337 nm laser beam. The instrument was operated in positive acquisition mode and controlled by the FlexControl 3.3 software package. All spectra were obtained using the reflectron mode with an acceleration voltage of 25 kV, a reflector voltage of 26, and pulsed ion extraction of 40 ns in the positive ion mode. The acquisition range used was from m/z 0 to 7000. […] Post-source decay (PSD) spectra using the Bruker Daltonics LIFT system were recorded at 8 kV precursor ion acceleration voltage and fragment acceleration (LIFT voltage 19 kV). […]
UHPLC was run on an Agilent 1290 Infinity UHPLC system equipped with diode array detector, set up with a Waters Acquity UPLC BEH amide column (2.1×150 mm with a 2.1×30 mm pre column both having a column material particle size of 1.7 μm) using 5 μL sample injections. […] Eluted oligosaccharides were monitored by recording absorption at 205 nm. Chromatograms were recorded, integrated and analysed using the ChemStation rev. […]
The conditions of assay [9]: 0.1 mg/mL beta-chitin, 0.5 μM ChiC, 1.0 mM ascorbic acid, pH 8.0.
Procedure: CBP21-like and GH61 proteins contain two highly conserved histidines (H28 and H114 in CBP21), one of which is the N-terminal histidine of the secreted mature protein.
Isocratic HPLC was run on a Dionex Ultimate 3000 HPLC system set up with a 4.6×250 mm Amide-80 column (Tosoh Bioscience, Montgomeryville, Pa., USA) with an Amide-80 guard column. The mobile phase consisted of 70% acetonitrile: 30% MilliQ H2O and the flow rate was 0.7 ml/min. Eluted oligosaccharides were monitored by recording absorption at 190 nm. Chromatograms were recorded, integrated and analysed using the Chromeleon 6.8 chromatography software (Dionex). […] A standard solution containing 0.10 mM (GlcNAc)2 was analyzed at regular intervals during the sample series, and the resulting average values (displaying standard deviations of less than 3%) were used for calibration.
For the sake of experimental simplicity and throughput, the degradation of chitin in reactions with ChiC and CBP21 was quantitatively assessed by measuring concentration of the dominant product, (GlcNAc)2, only.
The reaction was incubated at 37° C. and sampled at regular time intervals. Chitin degradation was measured by determining the concentration of (GlcNAc)2 by HPLC.
Assay [10] is described as follows: CBP21 reaction speed and degree of substrate oxidation (UHPLC of oxidized chitooligosaccharides). It counts as biochemical. The method, then:
FIGS. 16A and 16B show the speed and extent of oxidative cleavage by CBP21 activity. […] After five hours, approximately 4.9% of the total sugars (theoretical number based on chitin concentration) are oxidized*. […] The degree of oxidation was determined by rapid conversion of the treated chitin with a large dose of a chitinase cocktail followed by UHPLC detection of oxidized dimers (filled diamonds) and trimers (filled triangles), as described in the Materials and Methods section. The linear part of the reaction represents an oxidation rate of approximately 1 per minute**. Maximum levels are reached after 2-3 hours and represent a degree of oxidation of 7.6% of the total sugars (theoretical number based on chitin concentration)***. Data in both panels are mean+/−SD (N=3); error bars (not visible for every point) indicate SD.
*The end concentrations of oxidized trimer and tetramer are 53 and 55 μM, respectively, giving rise to a total of 108 μM GlcNAcA. The molar concentration of GlcNAc in the solution is 2217 μM. Thus the degree of oxidation is 108/2217; in other words 4.9% of the sugars are GlcNAcA. **The rates calculated for oxidized dimer and oxidized trimer are 0.68 and 0.60 μM/min. […] The molar concentration of GlcNAc in the solution is 2217 μM. Thus the degree of oxidation is 168/2217; in other words 7.6% of the sugars are GlcNAcA.
Fractions were dried under vaccum (SpeedyVac), and resuspended in 50 μL MilliQ water. Purity was verified by MALDI-TOF MS. Isolated GlcNAc3GlcNAcA or GlcNAc4GlcNAcA were each incubated for 2 hours at 37° C. with 7.0 μM of a pure recombinant family 19 chitinase (ChiG from Streptomyces coelicolor (Hoell et al., 2006, FEBS J. 273: 4889)) resulting in production of equimolar amounts of GlcNAc2 and GlcNAcGlcNAcA or GlcNAc2GlcNAcA, respectively. The amount of GlcNAc2 resulting from the hydrolysis was estimated using a predetermined standard curve. Response factors for the GlcNAcA containing oligosaccharides were obtained by determining GlcNAcGlcNAcA/GlcNAc2 and GlcNAc2GlcNAcA/GlcNAc2 peak area ratios and found to be 0.71 and 0.81, respectively. A response factor for GlcNAc3GlcNAcA was approximated to be 0.88 by extrapolation of the two experimentally determined response factors. Using the response factors determined, GlcNAcGlcNAcA and GlcNAc2GlcNAcA peaks could be quantified using GlcNAc2 for calibration. […] Additionally, the reactions contained 0.45 mg/mL beta-chitin, 1.0 μM CBP21 and 0.5 ChiC μM in 20 mM Tris-HCl pH 8.0.
The reactions were incubated at 37° C. in an Eppendorf Thermo mixer with shaking at 1000 rpm, and sampled at 30, 60, 120 and 300 minutes. All samples were mixed 1:1 with 100% acetonitrile in order to stop the reaction and soluble products were analyzed by UHPLC. Separation of the oxidized oligosaccharides and GlcNAc2 was achieved using a column temperature of 30° C. and a flow of 0.4 mL/min, with a gradient starting at 80% ACN (A):20% 15 mM Tris-HCl pH 8.0 (B) for 4.5 minutes, followed by an 11 minute gradient to 63% A: 37% B which was held for 3.5 minutes. Column reconditioning was achieved by a two minute gradient to initial conditions and subsequent running at initial conditions for 5 minutes. Eluted oligosaccharides were monitored by recording absorption at 205 nm. Chromatograms were recorded, integrated and analysed using the ChemStation rev. B.04.02 chromatography software (Agilent Technologies).
In order to approximate the rate of the CBP21 oxidohydrolytic activity, reactions containing 0.45 mg/mL beta-chitin, 1.0 μM CBP21 and 1.0 mM reduced glutathione in 20 mM Tris-HCl pH 8.0 were incubated at 37° C. and sampled at 10, 15, 30,45, 60 and 300 minutes. […]

The mark [11] stands for this setting: 1.0 μM CBP21 alone, 0.45 mg/mL beta-chitin.

On to `[Cl-].[Cl-].[Mg+2]` [MgCl2], for which the “re-activation of metal-free CBP21” value on CBP21 [1] is “Re-activation of metal-free CBP21 was achieved”.
On the same count and under the same terms, the entry for `[Cl-].[Cl-].[Zn+2]` [ZnCl2] is “Re-activation of metal-free CBP21 was achieved”.
Take `O=C1O[C@H]([C@@H](O)CO)C(O)=C1O` [ascorbic acid]: the “increase of the release of glucose” value in the assay with Cellic™ CTec2 (AVICEL®) and in the assay with Cellic™ CTec2 (Filter Paper) was “about 30%” each time.
`N[C@@H](CCC(=O)N[C@@H](CS)C(=O)NCC(=O)O)C(=O)O` [reduced glutathione, reference compound]: the “effect of reductant in reactions with only CC” value in [2] and in assay [3] (0.5 mM reduced glutathione) was “no effect in reactions with only CC” each time. Also, in assay [4], the “effect of reductant on Cel7A alone” value was “essentially identical”.
For `O=S([O-])S(=O)[O-].[Na+].[Na+]` [sodium dithionite, Sodium dithionite], the “effect on the potentiating effect of CBP21 on ChiC” value at CBP21 [5] is recorded as “abolished”. Also, the “effect on CBP21 generated oxidized products” value in assay [6] is “no detectable amounts of CBP21 generated products”.

B1: TtGH61E: GH61 protein from Thielavia terrestris (SEQ ID NO: 1) (protein)
chain: MLANGAIVFLAAALGVSGHYTWPRVNDGADWQQVRKADNWQDNGYVGDVTSPQIRCFQATPSPAPSVLNTTAGSTVTYWANPDVYHPGPVQFYMARVPDGEDINSWNGDGAVWFKVYEDHPTFGAQLTWPSTGKSSFAVPIPPCIKSGYYLLRAEQIGLHVAQSVGGAQFYISCAQLSVTGGGSTEPPNKVAFPGAYSATDPGILINIYYPVPTSYQNPGPAVFSCMLANGAIVFLAAALGVSGHYTWPRVNDGADWQQVRKADNWQDNGYVGDVTSPQIRCFQATPSPAPSVLNTTAGSTVTYWANPDVYHPGPVQFYMARVPDGEDINSWNGDGAVWFKVYEDHPTFGAQLTWPSTGKSSFAVPIPPCIKSGYYLLRAEQIGLHVAQSVGGAQFYISCAQLSVTGGGSTEPPNKVAFPGAYSATDPGILINIYYPVPTSYQNPGPAVFSC
modifications: T. terrestris
Consider B1, for which the “cleavage of cellulose, oxidized products” value in [7] was “cuts cellulose producing oxidized and native celluoligosaccharides”.

B2: CBP21: chitin-binding protein of Serratia marcescens, single-domain CBM33 protein (SEQ ID NO: 4) (protein, listed as Serratia marescens)
chain: MNKTSRTLLSLGLLSAAMFGVSQQANAHGYVESPASRAYQCKLQLNTQCGSVQYEPQSVEGLKGFPQAGPADGHIASADKSTFFELDQQTPTRWNKLNLKTGPNSFTWKLTARHSTTSWRYFITKPNWDASQPLTRASFDLTPFCQFNDGGAIPAAQVTHQCNIPADRSGSHVILAVWDIADTANAFYQAIDVNLSK
Consider B2, for which the “effect on CELLUCLAST (CC) production of soluble glucose over time” value in assay [3] (10 mg/ml filter paper, 0.8 μg/ml CC, pH 5.5) is reported as “did not affect CC efficiency”. In [8], the “production of soluble oxidized oligosaccharides from beta-chitin” value is given as “soluble products are dominated by even numbered short oligosaccharides with acidic reducing ends”. Further, in assay [9], the “potentiating effect on chitinase (ChiC) efficiency” value was “promotes chitin degradation by ChiC considerably better in the presence of ascorbic acid”. Also, in [10] (setting [11]), the “rate calculated for oxidized dimer” value was 0.68 µM/min, the “rate calculated for oxidized trimer” value is 0.60 µM/min and the “rate of oxidized products generated (dimer + trimer)” value was 1.28 µM/min. In addition, in assay [10] (CBP21 + ChiC, five hours), the “end concentration of oxidized tetramer” value stood at 55 µM, the “end concentration of oxidized trimer” value came to 53 µM and the “total GlcNAcA” value amounted to 108 µM. In assay [10] (CBP21 alone), the “oxidized dimer produced at maximum levels” value came out at 93 µM, the “oxidized trimer produced at maximum levels” value stood at 75 µM, the “time at which maximum levels of oxidized sugars are reached” value was in the range of 2 to 3 h and the “total GlcNAcA at maximum levels” value was 168 µM.

B3: TaGH61A: GH61 protein (SEQ ID NO: 2), GH61A from T. aurantiacus (protein)
chain: MSFSKIIATAGVLASASLVAGHGFVQNIVIDGKKYYGGYLVNQYPYMSNPPEVIAWSTTATDLGFVDGTGYQTPDIICHRGAKPGALTAPVSPGGTVELQWTPWPDSHHGPVINYLAPCNGDCSTVDKTQLEFFKIAESGLINDDNPPGIWASDNLIAANNSWTVTIPTTIAPGNYVLRHEIIALHSAQNQDGAQNYPQCINLQVTGGGSDNPAGTLGTALYHDTDPGILINIYQKLSSYIIPGPPLYTG
modifications: T. aurantiacus
Consider B3, for which the “cleavage of cellulose, oxidized products” value in assay [7] is given as “much less active than TtGH61E”.
